According to the DeepSol protein solubility set:

Assay: soluble on expression in E. coli; label from the status in PepcDB or PDB records

| Sequence | soluble on expression in E. coli |
| --- | --- |
| ATTLYLTRHGETKWNVERRMQGWQDSPLTEKGRQDAMRLGKRLEAVELAAIYTSTSGRALETAEIVRGGRLIPIYQDERLREIHLGDWEGKTHDEIRQMDPIAFDHFWQAPHLYAPQRGERFCDVQQRALEAVQSIVDRHEGETVLIVTHGVVLKTLMAAFKDTPLDHLWSPPYMYGTSVTIIEVDGGTFHVAVEGDVSHIEEVKEV | soluble |
| AVKTYGMFIGTQFDSSKFLYSAFQAESNLGIWRFAHDKRPKKQSFCRTEKSRRIAIDIVQGWLAVDYDLVGDVRIIRSVLVVSSEPIQTDYTNFTGLTGKPMELSQLLTITQSQSSAKLVCSCFRVTDKQIHDAMEKQDCTSLTQLQNKLKCGTNCGSCISQIKQMVDSHQHQKGKQQASQQSLAIQIK | not soluble |
| AVPETRPNHTIYINNLNEKIKKDELKKSLYAIFSQFGQILDILVSRSLKMRGQAFVIFKEVSSATNALRSMQGFPFYDKPMRIQYAKTDSDIIAKMKGTFVERDRKREKRKPKSQE | soluble |
| AVVASLKPVGFIASAIADGVTETEVLLPDGASEHDYSLRPSDVKRLQNADLVVWVGPEMEAFMQKPVSKLPGAKQVTIAQLEDVKPLLMKSIHGDDDDHDHAEKSDEDHHHGDFNMHLWLSPEIARATAVAIHGKLVELMPQSRAKLDANLKDFEAQLASTETQVGNELAPLKGKGYFVFHDAYGYFEKQFGLTPLGHFTVNPEIQPGAQRLHEIRTQLVEQKATCVFAEPQFRPAVVESVARGTSVRMGTLDPLGTNIKLGKTSYSEFLSQLANQYASCLKGD | soluble |
| AVVNTDDYVTRTSIFYHAGSSRLLTVGDPYFRVPAGGGNKQDIPKVSAYQYRVFRVQLPDPNKFGLPDTSIYNPETQRLVWACAGVEIGRGQPLGVGLSGHPFYNKLDDTESSHAATSNVSEDVRDNVSVDYKQTQLCILGCAPAIGEHWAKGTASKSRPLSQGDCPPLELKNTVLEDGDMVDTGYGAMDFSTLQDTKCEVPLDICQSICKYPDYLQMSADPYGDSMFFCLRREQLFARHFWNRAGTMGDTVPQSLYIKGTGMRASPGSCVYSPSPSGSIVTSDSQLFNKPYWLHKAQGHNNGVCWHNQLFVTVVDTTRSTNLTICASTQSPVPGQYDATKFKQYSRHVEEYDLQFIFQLCTITLTADVMSYIQSMNSSILEDWNGGSGGNKDPYDKLKFWNVDLKEKFSLDLDQYPLGRKFLVQAGL | soluble |
| CGGCGEDVVGDGAGVVALDRVFHVGCFVCSTCRAQLRGQHFYAVERRAYCEGCYVATLE | soluble |
| CHQDCPQMSPQPEMDRFASEFGEQDVAVDGQAPENALENDEPKYAPQVISEQNAFLMREMMYSNIWGGGNWREGTGWNGTGWRAQKLERRDIGGKTGTTNDSKDA | not soluble |
| DALEVAEKVTAVIFDKTGTLTKLKESAKPAVQELKRMGIKVGMITGDNWRSAEAISRELNLDLVIAEVLPHQKSEEVKKLQAKEVVAFVGDGINDAPALAQADLGIAVGSGDIVLIRDDLRDVVAAIQ | soluble |
| DAQNYFQATEIRTMIALLQLIDNPYQDIPLAAVLRSPIVGLKENELVLIRLANKETSYYEAFLTFNQKMEPTMEEAVVQEKTIRFAESLEKWREQARRNQISNLLWTIYRETAYLDYVGGLPVGKQRQANLYALVDRAAAYEKTTFRGLFQFVRFIEKMQEKDKDLAEPVVLSEENAVRV | not soluble |
| DDSLGEAVTTRAEALTIPAVLRARNLLSTTVARTPLVCDGTLPPFVPVAAPPGAATMQTPFHRMLATADDLLFNGVACWALDRDESGTCIGAIHIPLDTWQIEENTVRVNGKAVDPMEVCIFVGIHGGLLTHASETFTDARNLVRAAARVAQNPAALIELRQTNNAQLSPDDVDRIINGYVAARRGRNSGVGFSSSGLEVHEHEMAKENLLIEGRNAAAVDVARAMNVPAAFIDATVGGTSLSYQNAASRMIELVTFGVEPLMSAIEARLNQPDMHADHLANPLKFDPAALLDAIPTTPTIGAQPHGENS | soluble |
| DEAMLKIEQQEVVKNLPVGSKLVQLKYAGHSTDEPLLNQIYKEFEVTANILYGNIEILDGIPVGEMVVILSGDEEKLRQACQAITDSQVQLTLLKEGG | not soluble |
| DEIIDGEDELEQDDPFEGEDIDPESIQEPEASYDSSSSPSGASNAEDDWQDEHRVRKFHINGVTVKAIAERVQYYDADGKLVTESFKDYTRKTMAKQFTSMDDFVKRWQDADKKQAIIDELAEEGIIWEALELEVGKDLDPFDMICHVVYDQPALTRKERADNVKKRNYFTKYGETAQQVLNNLLDKYADEGVQEIENIHVLKVKPFDEMGRPAEIVKKCFGGKEQYLEAISELEAEIY | not soluble |
| DGMTKLTFGGHPFLLGFEQLERLVERTAKTASEGYPPFNIEAVAENAYRITLAVAGFREDDIAITVEDRQLVVRGRQAEDPAERVFLHRGIASRAFQRSFVLADGVEVAGATMEHGLLHIDLHRQVPQAVVQTIPIGRNR | not soluble |
| DGTADKTKGEVSNDKVSTDEKHVVSLDPNDQSKGKGVVIDNVANGDISATSTDAINGSQLYAVAKGVTNLAGQVNNLEGKVNKVGKRADAGTASALAASQLPQATMPGKSMVAIAGSSYQGQNGLAIGVSRISDNGKVIIRLSGTTNSQGKTGVAAGVGYQW | soluble |
| DGTCVNTNSQITANSQCVKSTATNCYIDNSQLVDTSICTRSQYSDANVKKSVTTDCNIDKSQVYLTTCTGSQYNGIYIRSSTTTGTSISGPGCSISTCTITRGVATPAAACKISGCSLSAM | soluble |
| DHDFKYEVSANLSTVRNRVTSLGFGTDSYISGAYITNVGEEIGKFYGWVYDGIARTQADLDNHATQEGAQIGDCLYKDVSGPDGKPDGKVDANDQVVLGSGMPKINFGLNARFEYKRFDLSIATFGALNYHVSDDIHNSLNSCYGWGNKDVAMLDANRFSEDGSTYLSSVPRTYVTNSASLAWNDLFSDRKIQNAAYWKIANIELGYNFPNEWFGKYVSDVRFYVSAQNLHTFTGYKGYNVDYAGGTFTPGYNFCSYPTARTFMCGVHFTF | not soluble |
| DHVLLITGGTRGIGLLCARHFAECYGVKKLVLTGREQLPPREEWARFKTSNTSLAEKIQAVRELEAKGVQVEMLSLTLSDDAQVEQTLQHIKRTLGPIGGVIHCAGLTDMDTLAFIRKTSDDIQRVLEPKVSGLTTLYRHVCNEPLQFFVLFSSVSAIIPELSAGQADYAMANSYMDYFAEAHQKHAPIISVQWPNWKETGMGEVTNQAYRDSGLLSITNSEGLRFLDQIVSKKFGPVVLPAMANQTNWEPELLMK | soluble |
| DIECPTCGRPMGIRTASTGVFLGCSGYALPPKERCKTTINLGDEEGIINVLEEDVETAALRAKKRCPICETAMDAYLIDDKRKMHVCGNNPNCEGYVVEYGEFKVKGYDGPVVECDKCGSDMVLKNGRFGKYMDCTSETCKNTRKILK | not soluble |
| DILVFTPRKSDAGISVILYPGAFVDALSYAPLANKLASSGYKTYIAEMPLNLAVFGKNRAADIIDEAPDEKFVIGGHSLGGVMSSRFAHENESEIEGVFFLASYPDKKGSLKNASFPALSITGTKDDVLNKDAYDKNKKYLPKDTTFVSIEGGNHAQFGSYGAQHGDGKATISEAEQTDQVSNALIAWLNTSVKNQER | soluble |
| DIQMTQSPSSLSASVGDRVTITCKASQDIKSFLSWYQQKPEKAPKSLIYYATSLADGVPSRFSGSGSGTDYTLTISSLQPEDFATYYCLQHGESPYTFGGGTKVEIKRTVAAPSVFIFPPSDEQLKSGTASVVCLLNNFYPREAKVQWKVDNALQSGNSQESVTEQDSKDSTYSLSSTLTLSKADYEKHKVYACEVTHQGLSSPVTKSFNRGECT | soluble |
| DIQMTQTTSSLSASLGDRVTISCSASQDISSYLNWYQQKPEGTVKLLIYYTSSLHSGVPSAFSGSGSGTDYSLTISNLEPEDFATYYCQQYSKFPWTFGGGTKLEIKRADAAPTVSIFPPSSEQLTSGGASVVCFLNNFYPKDINVAWAIDGSAAANGVLNSWTDQDSKDSTYSMSSTLTLTADAYEAANSYTCAATHKTSTSPIVKSFNANEC | soluble |
